In the DeepSol protein solubility set:

assay: soluble on expression in E. coli; label from the status in PepcDB or PDB records

Row | Sequence | soluble on expression in E. coli
1 | MGSDKIHHHHHHMATPPFHYQHMFPLGPDKTEYYLLTKDYVSVSEFEGKPILKIEKEGLTAMANAAFRDVSFLLRRSHNEQVAKILSDPEASDNDKYVALTFLRNAEVSAKGKLPLCQDTGTAIIHGEKGQQVWTGYCDEEALSLGVYKTYTEENLRYSQNAPLTMYDEVNTKCNLPAQIDLEATEGMEYKFLCVTKGGGSANKTYLYQETKAVLNPATLVPFLVEKMKTLGTAACPPYHIAFVIGGTSAEKNLLTVKLASTHYYDELPTTGNEYGRAFRDVELEKQVLEEAYKIGLGAQFGGKYMAHDVRIIRLPRHGASCPIGLGVSCSADRNIKCKINKDGIWIEKMDDKPGELIPAELREAGEGDVVKIDLNQPMADILKELTKYPVATRLSLNGTIIVGRDIAHAKLKERLDRGEDLPQYIKDHPIYYAGPAKTPEGMACGSMGPTTAGRMDPYVDLFQSHGGSMIMLAKGNRSQQVTDACKKYGGFYLGSIGGPAAILAQNNIKSIECVEYPELGMEAIWKIEVEDFPAFILVDDKGNDFFKQLKPRCLGNCK | not soluble
2 | MGSDKIHHHHHHMATVDLSQLPQPQIIEVLDFEVILREVKAVMIAAFPANQQASVTAALELESEPLNQIAQVIAYRELMLRQRINEGAASCMLSHAVSSDLDNLAANLNTERLVITAETETADAVMENDAAFRLRAQSAFEGLSVAGPTAAYEYFAKSASGKVKDAKAISPSPAVVVVSVISSEANGTASSELLSTVETALSAEDKRPVADRLTVQSAEIVDFAINAVLYLYPGPESEPIHTAAQKALQSWIGEQGMIGRDVARSSIMAALHVQGVQRVSVVEPPHDIVISDTQAAYCTGFTVTTGGIDG | not soluble
3 | MGSDKIHHHHHHMAVELRYDEEAVFLRRVNRFVVEVKSSRGVVRCHLMDTGRIDHLASPGRRGVLIAWLNRLGGKTVCRAQAFKTAGGVVAVVDSRVPNRLFAEAAPMVVGGDASIEAEREVFGSRLDFLISTGRGLWAVEVKGVNLSLDGVGLFPNAPSARAVKHLEVLARLAREGVKPLMAFVALRPDIRVFAPNYRVDRRFASLACTLLRRGLVGMVGIRVSIDLEPGVVRIRPVATAPVQCPPLQPGR | not soluble
4 | MGSDKIHHHHHHMAVLITRPGERGERLVEMLNKAGIMALHLPLISIIAGQELNRLPNKLQQLNCGDYVVAVSKNAVEYAQKTLSAVGFCWRSDLYYFTVGQRTAEYFASQIENSVYYPVEQESSEGLLNLPQMQDLQARNILILRANGGREFFTEQAILRGAKVETLECYQRMPIEYNKLEKISLCQRIGVDTIVVTSQEMLNYLVKLVPTNETGWLFSCRLVTVSQRIAALAKSVGWTNIVVADKADNLSLFLALQQ | not soluble
5 | MGSDKIHHHHHHMAVNRFRLENGKEELALYQIQLLKDQSHNENEEDKVSSSSFRQRILGNLLQPPNERPELPSGLYVLGLTGISGSGKSSVAQRLKNLGAYIIDSDHLGHRAYAPGGPAYQPVVEAFGTDILHKDGTINRKVLGSRVFGNKKQMKILTDIVWPVIAKLAREEMDVAVAKGKTLCVIDAAMLLEAGWQSMVHEVWTVVIPETEAVRRIVERDGLSEAAAQSRLQSQMSGQQLVEQSNVVLSTLWESHVTQSQVEKAWNLLQKRLPKAYQTRN | soluble
6 | MGSDKIHHHHHHMAVVQHHLPLSARLPARGIFEDDWRDRPSKRHPYPVILIHGTGVTKGDWMELGHALRSLGYAVWAPDFGMRSTAAVAESAAQVGAYIDAVLTVTKAKKAIVVGHSQGGILARYWMHNLDGANKVSHLISLAVPHHGTSHGGMMSPLGRTPRGTAVIDSLITGFFGASGFEMLHDSELIAQLNEHGDTLPYVYYSCIATRSDTIIQPVESCFLHGKLVRNIYAQAVSKHAIILHEDMPHDPRVRRLVIAEIERVERLTIPS | not soluble
7 | MGSDKIHHHHHHMAYADKKLYTDAGFTLERGEHLGIVGQNGAGKSTLIKILTGKVLPIAGRVEWKKKIQIGYLDQYADIPSGMSLIDFLHTAYSDLYDKEKKMTDLYSKYAELVDDKLLERATRFQNELDAADFYSIDNNVEQVITGLGLDSIGRDHIISEMSGGQRAKIILAKLLLEGNDVIILDEPTNYLDVSHIKWLEGYLQNYDGAALIISHDFDFLNNVANVILDVSFNTLTKYRGNFDQAMRQKTEKTEQQLRAYNKQQEVIKKTKTFIQKNKARASTTGRAKSREKMLAHMDIIEPPQTNPKATFKFPYIESQSTDALKAERLVVGYDPKKPVLNPITFSMSSGDKIVFTGFNGAGKSTLIKTLLGILPAISGKSKFSPSAKTNYFDQDLIWDDDKKTPLQIMQAAYPLEEQKQLRQRLGAAGINADNATKQMCLLSGGEQTKVKLALMELTPSNFLILDEPTNHLDEATKNSLKKAIQKFDGSLILVTHERSFYEGWIDKVIDIASMSNMQPGEVEE | not soluble
8 | MGSDKIHHHHHHMCLVVAARWPSRLVSSVKEDKMKPSTSRLTLLAGILGLPMALCLPLAAQAQSNQWQVNGFIGQGYISADGSEFIVGESGDTFDVTEAALHLSWMPDEHFRVAGAARYRQWGNLDESGLSADYLFAEYKFILDQGYVGARGGLFKSEAGFYTSTRDVSFTRPGILLPQSVYSDYLRDALLHITGGELFGGHPLLDGSLEWHLTLGDAQTSDDLTRNVVGSEEFGRFDADGYWGADLEYQDDSLRLGLTYFDAKSRYQSHLGGPFADGSLRSKHWIVSAQYRINFLEFTGEYLHWDRYVGGVFVPPELGIYEVRGYGYYLDVRGYLPGDVEVFVRYDHQVQDEKDPDGDKLAERGLPGYFGYAHDWTIGTRWLPAKDWMVAAEYHKVRGAAWVTPILLPNPAVQDKDWSLFAIEISYKFQW | not soluble
9 | MGSDKIHHHHHHMCMYVFVKERVESRSFIPEEKIFELLEKTKNPDPARVREIIQKSLDKNRLEPEETATLLNVEDPELLEEIFEAARTLKERIYGNRIVLFAPLYIGNDCINDCVYCGFRVSNKVVERRTLTEEQLKEEVKALVSQGHKRLIVVYGEHPNYSPEFIARTIDIVYNTKYGNGEIRRVNVNAAPQTIEGYKIIKSVGIGTFQIFQETYHRETYLKLHPRGPKSNYNWRLYGLDRAMMAGIDDVGIGALFGLYDWKFEVMGLLYHTIHLEERFGVGPHTISFPRIKPAINTPYSQKPEHVVSDEDFKKLVAIIRLSVPYTGMILTAREPAKLRDEVIKLGVSQIDAGSRIGIGAYSHKEDDEDRKRQFTLEDPRPLDQVMRSLLKEGFVPSFCTACYRAGRTGEHFMEFAIPGFVKNFCTPNALFTLQEYLCDYATEETRKVGEEVIERELQKMNPKIRERVREGLEKIKRGERDVRF | not soluble
10 | MGSDKIHHHHHHMDAFYASVEQRDNPELCGKPLAVGHAEERGVVAAASYEARRYGVHSAMSSQKAKRLCPELIFVPGRMNVYKAVSRQIHDIFHTYTDIIEPLSLDEAFLDVTENKAGFSLAIDIAKDIKKRIRKELGLIASAGVSYNKFLAKIASDYRKPDGLCTIHPDQALDFIAHLPIESFWGVGPVTAQKMHALGIHNGTQLQACTLEMLTRQFGKAGNLYYDFARGIDLRPVEPIRIRKSVGCEHTLEKDISLHSSAIIELYHVVTELLERLKRTNFSGNTLTLKIKFHDFNQITRSITQDSELTSMDKILPLAKKLLKEIDYESHPIRLIGLSVSNPKEEIKKQWEQLSLEFKEWDD | not soluble
11 | MGSDKIHHHHHHMDDFSEILARKRQGSLKVYLGYAAGVGKTYAMLQEAHRLAREGLDVVIGYVEPHDRADTLALVEGLEQVAPRKVAIAGSDFTEMDVPGIIARRPQVVLVDELAHTNAAGSENGKRYQDVLKVLEAGINVITTLNVQHLESVAERVESVAGVRVQERLPDAILRRADQVVNVDLTKEDLRERLRQGRIYSPEQAERALGGFFSYRNLSFLRELCLREASGDQVRKIEEQEHFPRHSAGDVIEGVMVALSSSPTDAETLIRRGVRIAHQMGSPCYVVYVQRPSENPTRIDSGLQRVLQGNLRLATQLGAEVVQLAGGDIAETLANFASERNVRHAVFGKSRLSPLLERVRGSFILEFLHDAVGVDVHIVNTTPRQPGQERA | not soluble
12 | MGSDKIHHHHHHMDIIDYLPQKMKAEAEAYMPCGLEEIRVRAGKQVQYMFAGGCRAGVYISHSDIEEMINYLSGYSFHAIAPQLAAGYFTVEGGHRVGIAGQMGCDGGKVTAVSEIASLNIRIAHQIRDVAMPLMPYIRDENSIYNTLVISRPGEGKTTFLRDCIRILSDGCDGKNALKVSVVDERSEIAACYLGVAQNDIGNSSDVLDNCPKSLGMRMLLRSMSPDVIAVDELGGEGDIEALNQLVSCGIRILGSVHGTNADDLRRKILPHAIERFVFIDHDEKGVRRYSIYDEAYRLLYSTVCGIGADKRLQQKKKGRYSDAV | not soluble
